Measured values published in patent US20120316071A1 (published 2012).
Each block holds one binder with its values, some of them ahead of it.

Legend:
[1] = molecular target: T1, rHuman EGF R/Fc Chimera, CF (R&D Systems Cat#344-ER) (human, UniProt P00533 25-645); assay: ECL multispot (MSD), antigen spotted; blank spot of this well 229
T1 construct: Bought protein; also called epidermal growth factor receptor

[2] = molecular target: T2, rHuman HGF R/c-MET/Fc Chimera, CF (R&D Systems Cat#358-MT/CF) (human, UniProt P08581 25-932); assay: as above
T2 construct: Bought protein; also called HGF R/Fc; hepatocyte growth factor receptor

[3] = molecular target: T3, rHuman Notch-1/Fc Chimera, CF (R&D Systems Cat#3647-TK) (human, UniProt P46531 19-526); assay: as above
T3 construct: Bought protein

[4] = molecular target: T4, rHuman CD44/Fc Chimera, CF (R&D Systems Cat#3660-CD) (human, UniProt P16070 21-220); assay: as above
T4 construct: Bought protein

[5] = molecular target: T5, rHuman IGF-1 sR, CF (R&D Systems Cat#391-GR) (human, UniProt P08069 31-932); assay: as above
T5 construct: Bought soluble receptor; also called insulin-like growth factor-1 soluble receptor

[6] = molecular target: T6, rHuman P-Cadherin/Fc Chimera, CF (R&D Systems Cat#861-PC) (human, UniProt P22223 108-654); assay: as above
T6 construct: Bought protein

[7] = molecular target: T7, rHuman Erythropoietin R/Fc Chimera, CF (R&D Systems Cat#963-ER) (human, UniProt P19235 25-250); assay: as above
T7 construct: Bought protein; also called EPO R; EPO R/Fc
T7 sequence (looked up): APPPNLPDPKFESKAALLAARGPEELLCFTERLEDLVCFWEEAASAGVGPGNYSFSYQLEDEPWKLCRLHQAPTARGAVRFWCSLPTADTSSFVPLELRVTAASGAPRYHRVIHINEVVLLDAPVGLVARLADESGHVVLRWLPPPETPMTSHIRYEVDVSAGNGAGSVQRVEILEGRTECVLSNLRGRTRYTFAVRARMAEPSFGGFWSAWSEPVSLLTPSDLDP

[8] = molecular target: T8, Recombinant Human DLL4 (R&D Systems Cat#1506-D4/CF) (human, UniProt Q9NR61 27-524); assay: as above
T8 construct: Bought recombinant protein; also called delta-like protein 4; rHuman DLL4

[9] = molecular target: T9, rHuman ErbB2/Fc Chimera, CF (R&D Systems Cat#1129-ER) (human, UniProt P04626 23-652); assay: as above
T9 construct: Bought protein; also called human epidermal growth factor 2 receptor

[10] = molecular target: T1, rHuman EGF R/Fc Chimera, CF (R&D …); assay: ECL multispot (MSD), antigen spotted; blank spot of this well 287
[11] = molecular target: T2, rHuman HGF R/c-MET/Fc Chimera, CF (R&D …); assay: as above
[12] = molecular target: T3, rHuman Notch-1/Fc Chimera, CF (R&D …); assay: as above
[13] = molecular target: T4, rHuman CD44/Fc Chimera, CF (R&D Systems …); assay: as above
[14] = molecular target: T5, rHuman IGF-1 sR, CF (R&D Systems …); assay: as above
[15] = molecular target: T6, rHuman P-Cadherin/Fc Chimera, CF (R&D …); assay: as above
[16] = molecular target: T7, rHuman Erythropoietin R/Fc Chimera, CF …; assay: as above
[17] = molecular target: T8, Recombinant Human DLL4 (R&D Systems …); assay: as above
[18] = molecular target: T9, rHuman ErbB2/Fc Chimera, CF (R&D …); assay: as above
[19] = molecular target: T1, rHuman EGF R/Fc Chimera, CF (R&D …); assay: ECL multispot (MSD), antigen spotted; blank spot of this well 261
[20] = molecular target: T2, rHuman HGF R/c-MET/Fc Chimera, CF (R&D …); assay: as above
[21] = molecular target: T3, rHuman Notch-1/Fc Chimera, CF (R&D …); assay: as above
[22] = molecular target: T4, rHuman CD44/Fc Chimera, CF (R&D Systems …); assay: as above
[23] = molecular target: T5, rHuman IGF-1 sR, CF (R&D Systems …); assay: as above
[24] = molecular target: T6, rHuman P-Cadherin/Fc Chimera, CF (R&D …); assay: as above
[25] = molecular target: T7, rHuman Erythropoietin R/Fc Chimera, CF …; assay: as above
[26] = molecular target: T8, Recombinant Human DLL4 (R&D Systems …); assay: as above
[27] = molecular target: T9, rHuman ErbB2/Fc Chimera, CF (R&D …); assay: as above
[28] = molecular target: T10, rHuman IGF-1 sR (insulin-like growth factor-1 soluble receptor), CF (R&D Systems Cat#391-GR) (human, UniProt P08069 31-932); assay: ECL multispot (MSD) assay, antigen spotted on plate, Fab in solution; blank spot of this well 271
T10 construct: Bought recombinant soluble receptor

[29] = molecular target: T11, Recombinant Human DLL4 (R&D Systems Cat#1506-D4/CF) (human, UniProt Q9NR61 27-524); assay: as above
T11 construct: Bought recombinant protein; also called delta-like protein 4; rHuman DLL4

[30] = molecular target: rHuman HGF R/c-MET/Fc Chimera, CF (R&D Systems Cat#358-MT/CF) (human, UniProt P08581 25-932); assay: as above
[31] = molecular target: T12, rHuman Notch-1/Fc Chimera, CF (R&D Systems Cat#3647-TK) (human); assay: as above
T12 chain: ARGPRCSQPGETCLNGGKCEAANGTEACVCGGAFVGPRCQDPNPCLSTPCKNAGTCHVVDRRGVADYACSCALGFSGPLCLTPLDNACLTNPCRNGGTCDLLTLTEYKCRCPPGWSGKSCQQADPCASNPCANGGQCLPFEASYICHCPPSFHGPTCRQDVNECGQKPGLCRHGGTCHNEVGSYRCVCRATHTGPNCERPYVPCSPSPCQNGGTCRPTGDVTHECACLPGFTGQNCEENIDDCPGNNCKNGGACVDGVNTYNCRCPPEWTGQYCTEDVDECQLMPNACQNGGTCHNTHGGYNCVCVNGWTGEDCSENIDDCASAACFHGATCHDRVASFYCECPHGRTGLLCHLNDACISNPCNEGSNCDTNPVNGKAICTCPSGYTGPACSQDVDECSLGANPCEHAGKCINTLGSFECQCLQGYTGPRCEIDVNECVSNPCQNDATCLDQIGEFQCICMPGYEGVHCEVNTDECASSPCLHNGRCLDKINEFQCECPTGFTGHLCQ

[32] = molecular target: rHuman CD44/Fc Chimera, CF (R&D Systems Cat#3660-CD) (human, UniProt P16070 21-220); assay: as above
[33] = molecular target: rHuman P-Cadherin/Fc Chimera, CF (R&D Systems Cat#861-PC) (human, UniProt P22223 108-654); assay: as above
[34] = molecular target: rHuman Erythropoietin R/Fc Chimera, CF (R&D Systems Cat#963-ER) (human, UniProt P19235 25-250); assay: as above

ECL signal [1]: 363
ECL signal [2]: 307
ECL signal [3]: 398
ECL signal [4]: 223
ECL signal [5]: 223
ECL signal [6]: 189
ECL signal [7]: 252
ECL signal [8]: 2580
ECL signal [9]: 331
ECL signal [10]: 226
ECL signal [11]: 344
ECL signal [12]: 358
ECL signal [13]: 205
ECL signal [14]: 162
ECL signal [15]: 250
ECL signal [16]: 319
ECL signal [17]: 2440
ECL signal [18]: 317
B1: Fab VH1-46_IGHD6-6*01_IGHJ1*01 S102A/S103P/S104F (APF) & L6_IGKJ1*01 (Fab, V domains shown)
VH: QVQLVQSGAEVKKPGASVKVSCKASGYTFTSYYMHWVRQAPGQGLEWMGIINPSGGSTSYAQKFQGRVTMTRDTSTSTVYMELSSLRSEDTAVYYCAREEYAPFSAEYFQHWGQGTLVTVSS
VL: not shown
notes: Fab made in E. coli: VH cloned into Plasmid A (CH1, His6 and Flag tags), VL into Plasmid C (kappa CL); Template of the light chain NNK mutants; also called APF / parent; H:APF & L:wt

ECL signal [19]: 290
ECL signal [20]: 325
ECL signal [21]: 229
ECL signal [22]: 268
ECL signal [23]: 210
ECL signal [24]: 314
ECL signal [25]: 263
ECL signal [26]: 817
ECL signal [27]: 234
B2: Fab VH1-46_IGHD6-6*01_IGHJ1*01 S102A/S103P/S104F (APF) & L6_IGKJ1*01 R91Q (Fab, V domains shown)
VH: QVQLVQSGAEVKKPGASVKVSCKASGYTFTSYYMHWVRQAPGQGLEWMGIINPSGGSTSYAQKFQGRVTMTRDTSTSTVYMELSSLRSEDTAVYYCAREEYAPFSAEYFQHWGQGTLVTVSS
VL: EIVLTQSPATLSLSPGERATLSCRASQSVSSYLAWYQQKPGQAPRLLIYDASNRATGIPARFSGSGSGTDFTLTISSLEPEDFAVYYCQQQSNWPPWTFGQGTKVEIKR
notes: Fab made in E. coli: VH cloned into Plasmid A (CH1, His6 and Flag tags), VL into Plasmid C (kappa CL); also called APF / R91Q

ECL signal [28]: 211
ECL signal [29]: 2090
ECL signal [30]: 405
ECL signal [31]: 193
ECL signal [32]: 316
ECL signal [33]: 240
ECL signal [34]: 304
B3: Fab VH1-46_IGHD6-6*01_IGHJ1*01 S102A/S103P/S104F (APF) & L6_IGKJ1*01 S92N (Fab, V domains shown)
VH: QVQLVQSGAEVKKPGASVKVSCKASGYTFTSYYMHWVRQAPGQGLEWMGIINPSGGSTSYAQKFQGRVTMTRDTSTSTVYMELSSLRSEDTAVYYCAREEYAPFSAEYFQHWGQGTLVTVSS
VL: EIVLTQSPATLSLSPGERATLSCRASQSVSSYLAWYQQKPGQAPRLLIYDASNRATGIPARFSGSGSGTDFTLTISSLEPEDFAVYYCQQRNNWPPWTFGQGTKVEIKR
notes: Fab made in E. coli (heavy chain in plasmid A with CH1, His6 and Flag tags; kappa light chain in plasmid C); also called APF / S92N
